Measurements reported in paper PMC3001952.

Target: single chain trimer version of HLA-Cw6, normal length
Experiment: cell-cell conjugate formation by flow cytometry; PKH26-labelled NKL cells (or KIR2DL1-expressing NKL cells) mixed with equal numbers of PKH67-labelled P815 transfectants, 30 min, fixed with 1% paraformaldehyde; percentage of NKL cells forming conjugates

KIR2DL1-CFP on NKL cells (from UniProt P43626 22-348) (receptor)
percent of NKL cells forming conjugates: > 50%
